The results in this text go back to patent publication US20260092918A1.

The target of the assay is H2-K (b) OVA 257-264 SIINFEKL peptide-MHC (mouse) (UniProt P01901). Nature of the assay: cell-based or functional assay.
Sequence of UniProt P01901 (P01901 22-305 limits assumed): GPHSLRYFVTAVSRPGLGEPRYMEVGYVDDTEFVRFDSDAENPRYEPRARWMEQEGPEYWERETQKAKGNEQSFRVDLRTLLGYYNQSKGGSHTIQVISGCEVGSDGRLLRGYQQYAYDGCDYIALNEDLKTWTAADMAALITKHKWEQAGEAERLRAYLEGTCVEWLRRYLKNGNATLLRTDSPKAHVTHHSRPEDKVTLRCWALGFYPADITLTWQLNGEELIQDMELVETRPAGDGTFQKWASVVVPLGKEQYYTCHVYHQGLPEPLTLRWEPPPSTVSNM

In the case of OT-1 TCR on OT-1 T-cells, the TCR tension signal, OT1 T-cells cultured in ACM relative to UCM (decrease) came to 37 % decrease and the TCR tension signal, OT1 T-cells cultured in SCM relative to UCM (increase) amounted to 1240 % increase.
